From the DeepSol protein solubility set

Assay: soluble on expression in E. coli; label from the status in PepcDB or PDB records

Soluble on expression in E. coli, not soluble:
MAHHHHHHMNIEDDENKEKKETCLSYIKKINMSEIINDEAIGKRAEYLWNLALSAVYINVKLSMKYITLIKKITKNNLLFDNICCHYCNLIYIPFYNCKITHSPNQGKATYTCLLCKRKKKINLQHLSKHKNIYPLKHSDKHKPSTSNLSNVNFFLINEIDNYEIKKNNVPLNKDDTSNTENQLITKQENKNEDILKDVSCADMQKEEHIINQDNIINQDNIINQDNIINQDNIINQDNIINQDNIINQDNIINQDNIINQDNIINQDNIINKNDMYQNLSYLFRIDYGINKDDTQKGNEIYDKSIVNESEKCKSVHIENNKNDDNKNMNSESKNIKNERKRKSQNNNIAQNKNQGFPNVNMNDGFLNFNKSKKKKGKSILDIL
MMDDILKQIKAGEVSGVQFKERILDKYDIACELVAFSNSHGGKLVVGIKDKTGETNALSYSEVQETTNLLSDIASENVVPSILIKIDTVEVEDGNLVVATVKEGLNKPYHDNKGIVWVKNGADKRKVFDNAELAEMMTDCGSFAPDEAGVRDATVNDLDATTIKQFLGNRFERVLDKKGLTGDAFNEASLDMICSAIAKGHDCEKILRNLRFIRPDGTLTVAAMLLFGKYTQRWMPMMTAKCICFAGNSVGSKVFRDKVNDADMEGNLLHQYDTIMDFFTRNLHNVQVGDEFNSMGKLEIPYTSLVEFTVNSLVHRSLNMKAPVRIFIFDNRVEIHSPGALPNGLTIDDIKAGTSMPRNTFLFNNAIYLLPYTGVGSGITRALDEDINVTFMNNDKAQEFVITVWRGESNQVEDLDTGLRHSDTDLDTGLRHSDTDLDTKRVTLTNKEKDIVNFCSVPRTTKEILDRIGVSMHSKNRERYITSLVAAGYLQMTNPDNPTASNQKYKKVNKR
MECYVFTPKGRIIKLPRGATIVDFAYAVHTDIGNSCVSARVNRILAPLHSVLENGQTIEIITAPWARPNPLEHHHHHH
MLRFVAILQFILLLLLIFSCNADEAKCTIKPYEAKGDKSPGSNGYVIEINGTTTKSMDISKGFVPGEIYKVSIRGWRTQYTVKTFRGFVVSSLFEDNTSAGSWQVVKGHGDARISPGCRQSGVSHANLKSKTSVHMMWKAPEVSSGCVVFRASVIETKYIWFTEAEGLTVKLCIQKGTQILKPVDDPSATCCACDIAQYDLEFTGIWSKNTHPKDYPTLEHLTHFTDMLGSSHSSNYSLWTIGGISTDGMKEIAEWGNTYKAEAEAKAKASEVRSLMKVKGLWFPDVQGTTKSQFVVNKYHHFVSLATMFGPSPDWCVGLSSVNLCLPDCTWAEERTFELQPFDAGTDSGPTYMSPNEPTEPREPIHWITTKLNPLSPFYNSKSDTIPTLAKVILRRKNVTSSECKSDDILKAEAHNITNTSEDEEYKDRRECMMTQWEPWSLCSATCGKGIRIRSRVYVFPIKAQVFHCHRQTTEKQFCNAKINECENSEAFSSKCQVSSWGSWGECSVQCGHGMRSRNRTFLNPATKSGDCSVDLERKDICVGENGDDCNVTPDPLCKTTAWSDWSPCSASCDEGVRVRTRLFFYSEHEKRCMHVNLQEKDTCVMQSCRRFIEINSEEICQEDKQAGQCAGNFPRYWYNHEKTQCERFIFTGCKGNRNQFETEEECKQICLPGYEKSKSLIPNNQLLEDFGNTEVDDGGERVDCEVSKWTAWGSCSVSCGRGKKSRSRHVVKLARNGGHQCSEHLMQELQCRLRPCPVKLTCQVGPWSRWSPCSVSCGEGSQTRRRRVVRARNDDWEEIECDDAETEVRQCTGRHQC
QRQSPIYHAQATVLIKSAEKSGATSGLQQFQELGLMIGNSEVENEILMLKSKRLTAIVVDKLDLDVSIYKQGFWRNESLYGNSPVSIQITDRDSTENYSFRIQINDAHSFQLTHFEQKERNGIGDIKIDGSFGRPIATPVGELKLNTTLFFADSWKGEVLYVTKENTRKVVERYNQDLQVSLADKKATIVNLSLKNEDLDRAKNFIDALIASYNDDVMNDKKSVAVSTAAFIDERLAMIGGELGTVDTEIETFKKRNNITDISTDVGTYLKSSADLQKDQLIVERNLSLAKYIQSFLRQTSTDNELMPANLGLTERGIDNSITLYNELKLKYDRLKQSSSENSPAVQEVGMQLVAMRKSINAAVDNYIKTLNLQLREVNKEMSRTKEQISAVPTQEKIMSTILRQQKIKEELYLYLLNKREENALRLAITESNAKTVDSADGSSEPISPRKP
MEMKGINNIRIDDRLIHGQVATMWSNKLGVTRLMVVNDNVAKNDLQKQVLRMAVPAGISSSIITEETAISNIKNGKYEGQNVLMIVKSPVDLLPFIENDLEIKRINVGNMSNRNNTTVLRPNISVTDEERSAFEKLLSRDIEITTIMTPDDKKTFLKDIL
GPGSTRCQRERLLYVRRFDPVRGYHLRAAEDISVGTIIFQDECRPVRLCTKPYALQHFSKADYVDFQHNAWPVGRDGHYYALWDHDPAQWRAFNHSCEPNMSFAPMRSLDVVALRNIPKGEELTMDYRQFMDSTMPGFQCNCGTEKCEGFVSPGSLVDSPTAKIASQPTVALRHNIAVRLNPI
MGSDKIHHHHHHMKKLVATAPRVAALVEYEDRAILANEVKIRVRFGAPKHGTEVVDFRAASPFIDEDFNGEWQMFTPRPADAPRGIEFGKFQLGNMVVGDIIECGSDVTDYAVGDSVCGYGPLSETVIINAVNNYKLRKMPQGSSWKNAVCYDPAQFAMSGVRDANVRVGDFVVVVGLGAIGQIAIQLAKRAGASVVIGVDPIAHRCDIARRHGADFCLNPIGTDVGKEIKTLTGKQGADVIIETSGYADALQSALRGLAYGGTISYVAFAKPFAEGFNLGREAHFNNAKIVFSRACSEPNPDYPRWSRKRIEETCWELLMNGYLNCEDLIDPVVTFANSPESYMQYVDQHPEQSIKMGVTF
RRNINVVLHEDSKALDEVVIVGYGKQKKESVVVSMSSIKPKDIVVPSRSLNNSLAGQVAGLIAVQRSGEPGYDNAEFWIRGVSTFAGGTSPLVLVDGVPRNMSDIEPDEIETFSVLKDAAATAIYGAEGANGVVLVTTKRGRVEK
MRNNPLIPKSKLPNLGTTIFTQMSALAQKHQAINLSQGFPDFDGPRYLHERLAYHVAQGANQYAPMTGAQALREAIADKTAEIYGYRPDDVSDITVTAGATEALYAAITALVRAGDEVICFDPSYDSYAPAVALSGGVLKRIALTPPHFRVDWQAFSALLSERTRLVILNTPHNPTATVWRQADIEALWQAIGEREIYVLSDEVYEHICFAAEGHASVLAHPQLRERAVAVSSFGKTFHMTGWKIGYCVAPAAISAEIRKVHQYLTFCVNTPAQLALADMLRAAPEHYRALPDFYRKKRDVLVNALAQSRLKVLPCEGTYFLLIDYSAVSTLNDVEFCQWLTEEVGVAAIPLSVFCAAPFPHQLIRLCFAKQESTLLAAAERLCKL

Soluble on expression in E. coli, soluble:
MKILRFNEGRWGVLEGELVLETDGPGGNPTGRRYDLASVTLLPPATPTKIVCVGRNYREHIREMGHDFGEDLPKEPGLFLKGPNALARPGNPRDPWGTAEPVPYPFFTEELHYEGELAVVVGDRMRHVPPEKALDHVLGYTVAVDITARDVQKKDLQWVRAKSADKFLPLGPWLETDLNPQDTWVRTYVNGTLRQEGHTSQMIFSVAEILSYISTFMTLEPLDVVLTGTPEGVGALRPGDRLEVAVEGVGTLFTLIGPKEERPW
MVSSAVKCGICRGVDGKYKCPKCGVRYCSLKCYKDAAKHVHKESEQPRAGTEANVEVVNNDKIINSSLAMNKTLKTKAFDDIYQNSAELQELLKYNTVKFHLAKVYRILSSTVNDGSSGKMNSDLQKELAVNYLNTLRYGGIHYNEAIEEFCQILLDKLNAVKK
MPGQQATKHESLLDQLSLKGKVVVVTGASGPKGMGIEAARGCAEMGAAVAITYASRAQGAEENVKELEKTYGIKAKAYKCQVDSYESCEKLVKDVVADFGQIDAFIANAGATADSGILDGSVEAWNHVVQVDLNGTFHCAKAVGHHFKERGTGSLVITASMSGHIANFPQEQTSYNVAKAGCIHMARSLANEWRDFARVNSISPGYIDTGLSDFVPKETQQLWHSMIPMGRDGLAKELKGAYVYFASDASTYTTGADLLIDGGYTTR
MAKTIRDESTASAYWAAVNTFCALKDVHVIADAPVGCYNLAGVAVMDYTDAIPYLENLTPTSLTEREISSSGSSQIVQETIEKLMGSGKQLILVSSAESEMIGSDHQHMLAMKYPSVRFFASDSLGENEWQGRDRALAWLFDQFDDGQPSQIEPGTVSIIGPTYGCFNSPADLAEVKRLVTGAGGRVAHVYPFESKAAEITKLKNSAAIVVMYREFGAALAEKLGRPVLYAPFGIEETDRFIGKIGRLCGTPEQATRFIAEEKRTTLSPVWDLWRGPQSEWFPTIRFGVVASKSYADGIKHVLGDELGMQCLFSLDSAEVDNNAVRKEIVQKQPQFLYGRMPDKIYLAEADAKSRFIPAGFPGPIVRRALGTPFMGHSGVVWLVQEIVNALYDTLFNFLPITRRQQAAAPTKPLKWTPEANAILDGIVRKAPFISQISFGRELKRKAENLAASRGADTVTPDILQQLG
MSELWYTEKQTKNFGITMKVNKTLHTEQTEFQHLEMVETEEFGNMLFLDGMVMTSEKDEFVYHEMVAHVPLFTHPNPEHVLVVGGGDGGVIREILKHPSVKKATLVDIDGKVIEYSKKFLPSIAGKLDDPRVDVQVDDGFMHIAKSENQYDVIMVDSTEPVGPAVNLFTKGFYAGIAKALKEDGIFVAQTDNPWFTPELITNVQRDVKEIFPITKLYTANIPTYPSGLWTFTIGSKKYDPLAVEDSRFFDIETKYYTKDIHKAAFVLPKFVSDLIKLEHHHHHH
MSGFSTEERAAPFSLEYRVFLKNEKGQYISPFHDIPIYADKDVFHMVVEVPRWSNAKMEIATKDPLNPIKQDVKKGKLRYVANLFPYKGYIWNYGAIPQTWEDPGHNDKHTGCCGDNDPIDVCEIGSKVCARGEIIGVKVLGILAMIDEGETDWKVIAINVDDPDAANYNDINDVKRLKPGYLEATVDWFRRYKVPDGKPENEFAFNAEFKDKDFAIDIIKSTHDHWKALVTKKTNGKGISCMNTTLSESPFKCDPDAARAIVDALPPPCESACTVPTDVDKWFHHQKN
MAANFWNSSHYKQLLDPEEVDVVHDLDKERGISIDDFKLIKFHMSNHIMKLAQHIKVRQRVVATAITYMRRVYIRKSMVEFEPRLVALTCLYLASKAEESIVQARNLVFYIKRLYPDEYNKYELKDILGMEMKVLEALDYYLVVFHPYRSLSEFLQDAALNDVNMNQITWGIVNDTYKMDLILVHPPYRIALACIYIASVHREKDITAWFEDLHEDMNLVKNIAMEILDFYENYRTITEEKVNSAFSKLALKL
MATQTSKNPESVHDFTVKDAKENDVDLSIFKGKVLLIVNVASKCGMTNSNYAEMNQLYEKYKDQGLEILAFPCNQFGEEEPGTNDQITDFVCTRFKSEFPIFDKIDVNGENASPLYRFLKLGKWGIFGDDIQWNFAKFLVNKDGQVVDRYYPTTSPLSLERDIKQLLEIS
MSLNKLAFLFPLLLAPGVAHAEPPQGVEFLHWWTSDGEQQALQTLKAQLKRHDIELLQSPVLGGGGDSAMTVLQARALAGNPPSFAQIEGPSIKAWDAIGILHNVNAVADEQRWDEVLYPLSIEINKTQNGYIALPLTLHRLNWLWVNHKLLKQLNLSAPKNWQEMFAAMELAEQNGIVPIAVGEQPWQVAQLFENLVISTGGVEFYTNAMVKLERDSIDSETLRQALTQFRRLSLLIDNQLPDSKWDTATQALADGQALFQIGGDWILGELLANQVSVPQEVGCYPTPDSDGVFLYNMDSLVFMSSKSFSSEAAQQTASALADVEFQAKFNKVKGSIPVRTDIDISDFNPCQVQSYQDFHYGVKHNLAVPSMIDSMAVNPVAQQAINSEIFRFYRNPKMEPDELIKRIIAISQSGEGHHHHHH
